# Measured values taken from patent US20140377806A1.
# Legend:
# [1] = molecular target: human CXCR3 (full length, splice variant A) expressed on transfected cells (human) (UniProt P49682); test: cell-based or functional assay
# [2] = molecular target: human CXCR3 (full length, splice variant A) expressed on transfected cells (human) (UniProt P49682)
# [3] = molecular target: Full-length human CXCR3 receptor protein with C-terminal 6xHis and HPC4 tag (human) (UniProt P49682); test: SPR (Biacore whole receptor assay), receptor on NTA chip, 1:1 fit
# [4] = molecular target: human CXCR3 (full length, splice variant A) expressed on transfected cells (human) (UniProt P49682); remark: listed apart in the source
"IC50 (M), calcium mobilization to CXCL10 in human CXCR3-Gqi4qi4 CHO cells [1] [M]","IC50 (read off the curve), inhibition of CXCL10-induced calcium mobilization [all five panels] [2] [µg/mL]",Kd [3] [nM],koff [3] [s⁻¹],kon [3] [M⁻¹ s⁻¹],"IC50, inhibition of CXCL11-induced calcium mobilization in hCXCR3 HEK cells (FLIPR); bar labelled '+ CTRL' (panels A to C of the same sheet print '1C6 (+ CTRL)') [4] [µg/mL]","IC50, inhibition of CXCL11-induced calcium mobilization in hCXCR3 HEK cells (FLIPR); isotype control [4] [µg/mL]",Substance
3.14e-06,3,3.51,0.000142,41100,0.12,,"Anti-hCXCR3 mAb clone 1C6 (Becton, Dickinson catalog #557183) (antibody)"
,,,,,,27.6,CTRL IgG1 (antibody)
,,9.76,0.00127,136000,,,human CXCL10 (from UniProt P02778 22-98) (ligand)
,,1.72,0.00441,2.58e+06,,,human CXCL11 (from UniProt O14625 22-94) (ligand)
,,1.17,0.00426,3.69e+06,,,mouse CXCL11 (from UniProt Q9JHH5 22-100) (ligand)
